In this experiment the target is recombinant human CD33 protein (human, UniProt P20138 18-259, limits assumed). Kind of experiment: ELISA, recombinant human CD33 coated on the plate, antibody as comparator. In general terms: An ELISA detects its analyte on a solid surface through an enzyme-linked reagent.
Chain of recombinant human CD33 protein (P20138 18-259 limits assumed): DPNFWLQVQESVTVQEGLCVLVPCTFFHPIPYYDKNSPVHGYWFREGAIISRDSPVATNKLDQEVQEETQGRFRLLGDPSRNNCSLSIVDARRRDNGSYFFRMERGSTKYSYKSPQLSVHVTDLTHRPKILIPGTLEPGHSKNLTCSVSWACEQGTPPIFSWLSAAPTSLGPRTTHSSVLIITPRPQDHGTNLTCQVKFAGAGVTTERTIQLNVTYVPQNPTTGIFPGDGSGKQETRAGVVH

B1: anti-CD33 antibody ANTI-CD33 (antibody, human IgG1, kappa, V domains shown)
VH: EVQLVQSGAEVKKPGSSVKVSCKASGYTITDSNIHWVRQAPGQSLEWIGYIYPYNGGTDYNQKFKNRATLTVDNPTNTAYMELSSLRSEDTAFYYCVNGNPWLAYWGQGTLVTVSS
VL: DIQLTQSPSTLSASVGDRVTITCRASESLDNYGIRFLTWFQQKPGKAPKLLMYAASNQGSGVPSRFSGSGSGTEFTLTISSLQPDDFATYYCQQTKEVPWSFGQGTKVEVKR
notes: also called ANTI-CD33 mAb; naked anti-CD33 antibody
For the molecule B1, the binding result was “binds”.
